The values below come from publication PMC10535226, “Rapid SERS Detection of Botulinum Neurotoxin Type A”.

Where two headings read alike, the source gives them in different places.

The target in data set [1] is T1, Botulinum neurotoxin type A (Xeomin) (Clostridium botulinum serotype A, UniProt P0DPI1 2-1296).
T1 sequence (P0DPI1 2-1296): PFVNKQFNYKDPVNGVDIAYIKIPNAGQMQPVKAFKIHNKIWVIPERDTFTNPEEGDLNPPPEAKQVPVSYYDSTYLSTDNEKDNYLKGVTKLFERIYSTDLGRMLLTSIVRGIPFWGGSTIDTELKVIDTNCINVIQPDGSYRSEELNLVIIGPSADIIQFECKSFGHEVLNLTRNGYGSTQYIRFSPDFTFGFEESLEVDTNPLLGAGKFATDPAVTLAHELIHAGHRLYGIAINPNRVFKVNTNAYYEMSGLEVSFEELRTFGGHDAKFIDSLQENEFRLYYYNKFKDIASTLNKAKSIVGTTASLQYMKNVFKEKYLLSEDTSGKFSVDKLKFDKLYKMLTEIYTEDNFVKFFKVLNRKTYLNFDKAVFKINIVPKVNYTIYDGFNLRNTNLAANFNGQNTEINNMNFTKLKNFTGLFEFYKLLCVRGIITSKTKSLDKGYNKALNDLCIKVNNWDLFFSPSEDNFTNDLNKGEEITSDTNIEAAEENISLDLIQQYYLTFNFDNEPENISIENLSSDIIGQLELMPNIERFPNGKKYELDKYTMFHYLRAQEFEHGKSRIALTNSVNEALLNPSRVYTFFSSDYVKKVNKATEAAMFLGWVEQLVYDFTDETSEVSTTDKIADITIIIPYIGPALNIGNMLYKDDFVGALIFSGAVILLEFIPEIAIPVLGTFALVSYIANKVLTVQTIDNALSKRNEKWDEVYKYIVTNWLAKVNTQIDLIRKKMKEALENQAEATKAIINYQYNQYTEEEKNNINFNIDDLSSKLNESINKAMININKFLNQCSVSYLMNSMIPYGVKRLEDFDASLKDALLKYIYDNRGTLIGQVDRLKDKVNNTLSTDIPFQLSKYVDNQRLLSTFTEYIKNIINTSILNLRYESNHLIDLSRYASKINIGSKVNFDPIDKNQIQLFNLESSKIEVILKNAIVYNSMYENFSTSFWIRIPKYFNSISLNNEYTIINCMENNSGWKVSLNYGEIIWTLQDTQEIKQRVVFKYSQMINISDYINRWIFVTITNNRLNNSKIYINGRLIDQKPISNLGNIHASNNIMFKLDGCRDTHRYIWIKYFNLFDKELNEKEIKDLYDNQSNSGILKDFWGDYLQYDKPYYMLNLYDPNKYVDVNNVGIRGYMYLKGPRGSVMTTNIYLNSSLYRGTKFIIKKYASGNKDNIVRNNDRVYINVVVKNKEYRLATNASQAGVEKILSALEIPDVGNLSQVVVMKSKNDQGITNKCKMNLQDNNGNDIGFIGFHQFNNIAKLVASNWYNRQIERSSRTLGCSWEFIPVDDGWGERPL
Data set [2] addresses T1, Botulinum neurotoxin type A (Xeomin). As to the kind of experiment: BLI. The following applies: protein: commercial.
Data set [3] has as its target Botulinum neurotoxin type A (Xeomin) (Clostridium botulinum serotype A, UniProt P0DPI1 2-1296). Nature of the data set: SERS aptasensor. The following applies: protein: commercial; label: 3' TAMRA.
Target sequence in this assay (P0DPI1 2-1296): as above

Take AGTGCGGTGAGCCGTCGGACATACAAATAC (ssDNA) [SH-H8-TAMRA]: the binding result in data set [1] is on record as “no binding”.

B1: Apt_2.22 (structured_DNA)
DNA: ATACCAGCTTATTCAATTGACATGACTGGGATTTTTGGCGAAATCGAAGGAAGCGGAGAGATAGTAAGTGCAATCT
In turn, B1 yielded a dissociation constant Kd in data set [2] of 7 ± 4 nM.

B2: Apt_2.22_mod (structured_DNA)
DNA: B1 DNA
modifications: 5' SH-(CH2)6
With B2, the binding result in data set [3] is recorded as “binds”.

As a reminder, the Kd is the equilibrium constant for the complex coming apart. Read a low Kd as a tighter complex.
